According to publication doi:10.1101/2020.03.27.011510 (bioRxiv, 2020):
Where a chain is given by its changes, count along the chain named. Names and notes keep the numbering of the source.

Key:
BIR1 C12A/S87A/N28C-GdI = BIR1 C12A/S87A/N28C-GdI (UniProt P98170); test: DEER
DEER [1] = molecular target: the molecule itself; test: DEER
DEER [2] = molecular target: the molecule itself; test: DEER; remark: listed apart in the source
NMR titration = molecular target: the molecule itself; test: NMR titration

With “BIR1 C12A/S87A/N28C-GdI (from UniProt P98170 10-99) (domain or fragment)” as the molecule, how does the Kd (BIR1 C12A/S87A/N28C-GdI) read?
The Kd was 97.5 µM.

B1: WT BIR1 C12-GdI (first baculoviral IAP repeat domain of XIAP, spin-labelled at C12 with BrPSPy-DO3A-Gd3+) (domain or fragment)
chain: KTCVPADINKEEEFVEEFNRLKTFANFPSGSPVSASTLARAGFLYTGEGDTVRCFSCHAAVDRWQYGDSAVGRHRKVSPNCRFINGFYLE
modifications: BrPSPy-DO3A-Gd3+ (GdI) spin label on C12 via a thioether bond
With B1 as the molecule, how does the Kd (DEER [1]) read?
Its Kd is 126 ± 40 µM.

B2: BIR1 C12A/K19C-GdI (domain or fragment)
chain: B1 chain with C3A, K10C
modifications: BrPSPy-DO3A-Gd3+ (GdI) spin label on C19 (K19C) via a thioether bond
With B2 as the molecule, how does the Kd (DEER [1]) read?
The Kd was 126 ± 40 µM.

B3: BIR1 C12A/E22C-GdI (domain or fragment)
chain: B1 chain with C3A, E13C
modifications: BrPSPy-DO3A-Gd3+ (GdI) spin label on C22 (E22C) via a thioether bond
B3 was tested. Which Kd (DEER [1]) did it give?
Its Kd is 126 ± 40 µM.

B4: BIR1 C12A/V24C-GdI (domain or fragment)
chain: B1 chain with C3A, V15C
modifications: BrPSPy-DO3A-Gd3+ (GdI) spin label on C24 (V24C) via a thioether bond
B4 was tested. Which Kd (DEER [1]) did it give?
Its Kd is 126 ± 40 µM.

B5: BIR1 C12A/N28C-GdI (domain or fragment)
chain: B1 chain with C3A, N19C
modifications: BrPSPy-DO3A-Gd3+ (GdI) spin label on C28 (N28C) via a thioether bond
For B5, which Kd (DEER [1]) is on record?
The Kd was 126 ± 40 µM.

What about the Kd (DEER [2]) of the same molecule?
The Kd was 11.3 ± 3.8 µM.

B6: WT BIR1 (first baculoviral IAP repeat domain of XIAP), without spin label (domain or fragment)
chain: B1 chain
modifications: 15N isotope-labelled (NMR samples)
With B6 as the molecule, how does the Kd (NMR titration) read?
The Kd was 4.7 ± 2 µM.

B7: S87A BIR1 mutant, without spin label (domain or fragment)
chain: B1 chain with S78A
modifications: 15N isotope-labelled (NMR samples)
B7 was tested. Which Kd (NMR titration) did it give?
The Kd was 20.3 ± 4.6 µM.
